Where no end group is shown, it is not given here.
target: monoclonal antibody mAB 198; experiment: peptide microarray, fluorescence, cyclic peptide

Binder	relative signal [%]
RLLWNPADY (also: cyclic peptide, ring type and places not given here)	9.7%
NPADYGN (also: cyclic peptide, mode of cyclisation not given here) [NPADYGN, cyclic mimotope]	8.7%
RWNPADF (also: cyclic peptide, ring type and places not given here) [RWNPADF, cyclic mimotope]	9.1%
WNPDDYR (also: cyclic peptide, mode of cyclisation not given here) [WNPDDYR, cyclic mimotope]	9%
RLRWNPADYGS (also: cyclic peptide, ring type and places not given here)	9.7%
GGSLRLNPADY (also: cyclic peptide, mode of cyclisation not given here)	8.5%
VRLRGNPAD (also: cyclic peptide, mode of cyclisation not given here)	9.9%
VRLRLNPADYG (also: cyclic peptide, mode of cyclisation not given here)	9.7%
GSLRWNPADYQ (also: cyclic peptide, mode of cyclisation not given here)	9.7%
LRGNPAD (also: cyclic peptide, mode of cyclisation not given here) [LRGNPAD, cyclic mimotope]	9.1%
SLYWNPADY (also: cyclic peptide, mode of cyclisation not given here)	9.4%
GSLRWNPADYT (also: cyclic peptide, mode of cyclisation not given here)	8.7%
RSRWNPADY (also: cyclic peptide, ring type and places not given here)	9.8%

Results, then the binder that gave them:

relative signal [%]	Binder
9.8%	RLRPNPADY (also: cyclic peptide, ring type and places not given here)
8.9%	LRWNPADYPGI (also: cyclic peptide, mode of cyclisation not given here)
8.6%	LRFNPAD (also: cyclic peptide, mode of cyclisation not given here) [LRFNPAD, cyclic mimotope]
9%	RLRGNPADYGG (also: cyclic peptide, ring type and places not given here)
8.7%	SLRWNPADYHG (also: cyclic peptide, mode of cyclisation not given here)
8.6%	RLRTNPADY (also: cyclic peptide, ring type and places not given here)
8.8%	DVRLRQNPADY (not fully specified; cyclic peptide) [DVRLRONPADY, cyclic mimotope]
